# B1: PiggyBac transposable element-derived protein 1 (Homo sapiens), Q96JS3 (parent)
# chain: MYEALPGPAPENEDGLVKVKEEDPTWEQVCNSQEGSSHTQEICRLRFRHFCYQEAHGPQEALAQLRELCHQWLRPEMHTKEQIMELLVLEQFLTILPKELQPCVKTYPLESGEEAVTVLENLETGSGDTGQQASVYIQGQDMHPMVAEYQGVSLECQSLQLLPGITTLKCEPPQRPQGNPQEVSGPVPHGSAHLQEKNPRDKAVVPVFNPVRSQTLVKTEEETAQAVAAEKWSHLSLTRRNLCGNSAQETVMSLSPMTEEIVTKDRLFKAKQETSEEMEQSGEASGKPNRECAPQIPCSTPIATERTVAHLNTLKDRHPGDLWARMHISSLEYAAGDITRKGRKKDKARVSELLQGLSFSGDSDVEKDNEPEIQPAQKKLKVSCFPEKSWTKRDIKPNFPSWSALDSGLLNLKSEKLNPVELFELFFDDETFNLIVNETNNYASQKNVSLEVTVQEMRCVFGVLLLSGFMRHPRREMYWEVSDTDQNLVRDAIRRDRFELIFSNLHFADNGHLDQKDKFTKLRPLIKQMNKNFLLYAPLEEYYCFDKSMCECFDSDQFLNGKPIRIGYKIWCGTTTQGYLVWFEPYQEESTMKVDEDPDLGLGGNLVMNFADVLLERGQYPYHLCFDSFFTSVKLLSALKKKGVRATGTIRENRTEKCPLMNVEHMKKMKRGYFDFRIEENNEIILCRWYGDGIISLCSNAVGIEPVNEVSCCDADNEEIPQISQPSIVKVYDECKEGVAKMDQIISKYRVRIRSKKWYSILVSYMIDVAMNNAWQLHRACNPGASLDPLDFRRFVAHFYLEHNAHLSD
# partner: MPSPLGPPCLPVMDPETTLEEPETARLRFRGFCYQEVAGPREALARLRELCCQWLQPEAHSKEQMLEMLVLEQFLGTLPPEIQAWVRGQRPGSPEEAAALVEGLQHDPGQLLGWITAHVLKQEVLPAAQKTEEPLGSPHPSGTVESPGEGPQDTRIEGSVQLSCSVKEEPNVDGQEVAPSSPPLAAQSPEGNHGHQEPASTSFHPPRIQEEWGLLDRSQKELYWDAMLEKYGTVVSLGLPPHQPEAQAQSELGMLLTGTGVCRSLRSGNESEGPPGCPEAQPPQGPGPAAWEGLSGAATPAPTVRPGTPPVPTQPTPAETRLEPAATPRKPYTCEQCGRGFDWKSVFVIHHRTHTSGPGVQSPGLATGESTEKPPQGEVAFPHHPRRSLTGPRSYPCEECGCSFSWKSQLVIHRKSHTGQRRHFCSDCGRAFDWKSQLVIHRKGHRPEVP
# B2: Myelin proteolipid protein (Homo sapiens), P60201-2 (parent)
# chain: MGLLECCARCLVGAPFASLVATGLCFFGVALFCGCGHEALTGTEKLIETYFSKNYQDYEYLINVIHAFQYVIYGTASFFFLYGALLLAEGFYTTGAVRQIFGDYKTTICGKGLSATFVGITYALTVVWLLVFACSAVPVYIYFNTWTTCQSIAFPSKTSASIGSLCADARMYGVLPWNAFPGKVCGSNLLSICKTAEFQMTFHLFIAAFVGAAATLVSLLTFMIAATYNFAVLKLMGRGTKF
# partner: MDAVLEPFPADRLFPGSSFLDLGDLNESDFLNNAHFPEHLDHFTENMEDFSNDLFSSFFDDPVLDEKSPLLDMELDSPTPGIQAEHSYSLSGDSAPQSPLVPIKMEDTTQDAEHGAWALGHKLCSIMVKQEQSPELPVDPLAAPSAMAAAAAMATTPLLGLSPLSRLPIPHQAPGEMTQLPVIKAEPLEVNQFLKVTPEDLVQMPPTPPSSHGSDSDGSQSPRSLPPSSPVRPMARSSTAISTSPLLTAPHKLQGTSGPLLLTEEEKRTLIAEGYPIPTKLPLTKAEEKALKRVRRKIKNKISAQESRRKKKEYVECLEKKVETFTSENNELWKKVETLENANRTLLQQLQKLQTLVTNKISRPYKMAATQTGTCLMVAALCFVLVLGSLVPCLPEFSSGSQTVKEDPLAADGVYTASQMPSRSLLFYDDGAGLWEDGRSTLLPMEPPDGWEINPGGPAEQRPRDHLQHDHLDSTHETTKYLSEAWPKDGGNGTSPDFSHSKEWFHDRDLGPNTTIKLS
# B3: ATP synthase mitochondrial F1 complex assembly factor 2 (Homo sapiens), Q8N5M1 (parent)
# chain: MWRSCLRLRDGGRRLLNRPAGGPSASMSPGPTIPSPARAYAPPTERKRFYQNVSITQGEGGFEINLDHRKLKTPQAKLFTVPSEALAIAVATEWDSQQDTIKYYTMHLTTLCNTSLDNPTQRNKDQLIRAAVKFLDTDTICYRVEEPETLVELQRNEWDPIIEWAEKRYGVEISSSTSIMGPSIPAKTREVLVSHLASYNTWALQGIEFVAAQLKSMVLTLGLIDLRLTVEQAVLLSRLEEEYQIQKWGNIEWAHDYELQELRARTAAGTLFIHLCSESTTVKHKLLKE
# partner: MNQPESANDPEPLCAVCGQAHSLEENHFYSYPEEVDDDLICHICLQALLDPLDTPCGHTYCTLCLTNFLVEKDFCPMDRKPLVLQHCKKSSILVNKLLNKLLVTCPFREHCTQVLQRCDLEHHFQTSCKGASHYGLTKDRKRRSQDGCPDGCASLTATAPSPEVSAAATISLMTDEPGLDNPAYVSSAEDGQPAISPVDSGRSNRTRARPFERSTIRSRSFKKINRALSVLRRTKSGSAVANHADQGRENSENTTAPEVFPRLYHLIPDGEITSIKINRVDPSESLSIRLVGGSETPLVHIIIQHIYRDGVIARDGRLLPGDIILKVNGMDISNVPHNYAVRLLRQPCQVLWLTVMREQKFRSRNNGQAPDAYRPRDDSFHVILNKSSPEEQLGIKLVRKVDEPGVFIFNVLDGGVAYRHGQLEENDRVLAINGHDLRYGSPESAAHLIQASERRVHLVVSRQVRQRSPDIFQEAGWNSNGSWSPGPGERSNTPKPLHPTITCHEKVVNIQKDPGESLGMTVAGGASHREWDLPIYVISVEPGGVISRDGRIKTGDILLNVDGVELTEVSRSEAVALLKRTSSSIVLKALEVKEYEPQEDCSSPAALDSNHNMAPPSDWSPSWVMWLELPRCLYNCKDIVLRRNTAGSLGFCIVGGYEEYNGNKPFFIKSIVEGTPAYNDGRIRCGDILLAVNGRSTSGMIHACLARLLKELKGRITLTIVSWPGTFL
# B4: SH2 domain-containing protein 1A (Homo sapiens), O60880 (parent)
# chain: MDAVAVYHGKISRETGEKLLLATGLDGSYLLRDSESVPGVYCLCVLYHGYIYTYRVSQTETGSWSAETAPGVHKRYFRKIKNLISAFQKPDQGIVIPLQYPVEKKSSARSTQGTTGIREDPDVCLKAP
# partner: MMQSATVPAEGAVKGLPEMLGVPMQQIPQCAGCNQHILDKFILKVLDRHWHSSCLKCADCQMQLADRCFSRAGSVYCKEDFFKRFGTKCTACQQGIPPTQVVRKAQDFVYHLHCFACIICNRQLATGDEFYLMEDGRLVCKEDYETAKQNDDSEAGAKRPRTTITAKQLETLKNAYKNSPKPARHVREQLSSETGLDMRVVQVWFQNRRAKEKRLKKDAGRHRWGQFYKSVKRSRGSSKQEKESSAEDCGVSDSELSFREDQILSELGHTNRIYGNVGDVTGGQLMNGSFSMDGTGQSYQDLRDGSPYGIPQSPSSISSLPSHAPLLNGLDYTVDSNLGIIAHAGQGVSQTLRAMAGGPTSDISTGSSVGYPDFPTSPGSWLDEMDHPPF
# B5: Polycomb complex protein BMI-1 (Homo sapiens), P35226 (parent)
# chain: MHRTTRIKITELNPHLMCVLCGGYFIDATTIIECLHSFCKTCIVRYLETSKYCPICDVQVHKTRPLLNIRSDKTLQDIVYKLVPGLFKNEMKRRRDFYAAHPSADAANGSNEDRGEVADEDKRIITDDEIISLSIEFFDQNRLDRKVNKDKEKSKEEVNDKRYLRCPAAMTVMHLRKFLRSKMDIPNTFQIDVMYEEEPLKDYYTLMDIAYIYTWRRNGPLPLKYRVRPTCKRMKISHQRDGLTNAGELESDSGSDKANSPAGGIPSTSSCLPSPSTPVQSPHPQFPHISSTMNGTSNSPSGNHQSSFANRPRKSSVNGSSATSSG
# partner: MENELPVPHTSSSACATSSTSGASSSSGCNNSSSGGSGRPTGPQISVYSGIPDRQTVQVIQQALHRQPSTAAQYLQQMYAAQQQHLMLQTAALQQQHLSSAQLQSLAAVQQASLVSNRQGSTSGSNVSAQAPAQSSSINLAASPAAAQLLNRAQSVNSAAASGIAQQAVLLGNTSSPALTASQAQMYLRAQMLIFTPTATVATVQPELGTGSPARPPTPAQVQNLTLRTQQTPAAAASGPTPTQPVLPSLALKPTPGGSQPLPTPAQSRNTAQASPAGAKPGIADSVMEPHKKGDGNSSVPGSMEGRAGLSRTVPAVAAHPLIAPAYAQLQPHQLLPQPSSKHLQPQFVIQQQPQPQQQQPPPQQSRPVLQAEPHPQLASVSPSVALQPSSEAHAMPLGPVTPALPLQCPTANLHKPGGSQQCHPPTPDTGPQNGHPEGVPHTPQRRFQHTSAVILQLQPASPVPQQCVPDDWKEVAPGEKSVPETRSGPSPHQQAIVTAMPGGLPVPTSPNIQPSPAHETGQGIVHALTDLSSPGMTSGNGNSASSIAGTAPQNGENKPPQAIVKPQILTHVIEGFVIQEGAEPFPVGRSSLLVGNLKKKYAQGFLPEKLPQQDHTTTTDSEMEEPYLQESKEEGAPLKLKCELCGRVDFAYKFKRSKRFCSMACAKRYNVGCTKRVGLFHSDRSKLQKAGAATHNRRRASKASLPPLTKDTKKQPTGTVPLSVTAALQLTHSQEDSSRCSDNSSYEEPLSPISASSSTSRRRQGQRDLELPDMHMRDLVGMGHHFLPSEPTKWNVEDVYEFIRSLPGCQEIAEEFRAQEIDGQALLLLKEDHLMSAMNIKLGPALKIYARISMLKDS
# B6: Glial cell line-derived neurotrophic factor (Homo sapiens), P39905 (parent)
# chain: MKLWDVVAVCLVLLHTASAFPLPAGKRPPEAPAEDRSLGRRRAPFALSSDSNMPEDYPDQFDDVMDFIQATIKRLKRSPDKQMAVLPRRERNRQAAAANPENSRGKGRRGQRGKNRGCVLTAIHLNVTDLGLGYETKEELIFRYCSGSCDAAETTYDKILKNLSRNRRLVSDKVGQACCRPIAFDDDLSFLDDNLVYHILRKHSAKRCGCI
# B7: Beta-crystallin A4 (Homo sapiens), P53673 (parent)
# chain: MTLQCTKSAGPWKMVVWDEDGFQGRRHEFTAECPSVLELGFETVRSLKVLSGAWVGFEHAGFQGQQYILERGEYPSWDAWGGNTAYPAERLTSFRPAACANHRDSRLTIFEQENFLGKKGELSDDYPSLQAMGWEGNEVGSFHVHSGAWVCSQFPGYRGFQYVLECDHHSGDYKHFREWGSHAPTFQVQSIRRIQQ
# partner: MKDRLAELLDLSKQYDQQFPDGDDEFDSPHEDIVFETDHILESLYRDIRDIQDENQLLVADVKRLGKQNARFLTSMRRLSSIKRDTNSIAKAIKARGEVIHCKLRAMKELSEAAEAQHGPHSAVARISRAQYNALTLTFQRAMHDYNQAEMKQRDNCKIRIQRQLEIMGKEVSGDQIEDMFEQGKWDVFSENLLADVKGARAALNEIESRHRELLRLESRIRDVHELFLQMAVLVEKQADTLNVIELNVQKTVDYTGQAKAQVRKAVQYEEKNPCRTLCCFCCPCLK
# B8: Emerin (Homo sapiens), P50402 (parent)
# chain: MDNYADLSDTELTTLLRRYNIPHGPVVGSTRRLYEKKIFEYETQRRRLSPPSSSAASSYSFSDLNSTRGDADMYDLPKKEDALLYQSKGYNDDYYEESYFTTRTYGEPESAGPSRAVRQSVTSFPDADAFHHQVHDDDLLSSSEEECKDRERPMYGRDSAYQSITHYRPVSASRSSLDLSYYPTSSSTSFMSSSSSSSSWLTRRAIRPENRAPGAGLGQDRQVPLWGQLLLFLVFVIVLFFIYHFMQAEEGNPF
# partner: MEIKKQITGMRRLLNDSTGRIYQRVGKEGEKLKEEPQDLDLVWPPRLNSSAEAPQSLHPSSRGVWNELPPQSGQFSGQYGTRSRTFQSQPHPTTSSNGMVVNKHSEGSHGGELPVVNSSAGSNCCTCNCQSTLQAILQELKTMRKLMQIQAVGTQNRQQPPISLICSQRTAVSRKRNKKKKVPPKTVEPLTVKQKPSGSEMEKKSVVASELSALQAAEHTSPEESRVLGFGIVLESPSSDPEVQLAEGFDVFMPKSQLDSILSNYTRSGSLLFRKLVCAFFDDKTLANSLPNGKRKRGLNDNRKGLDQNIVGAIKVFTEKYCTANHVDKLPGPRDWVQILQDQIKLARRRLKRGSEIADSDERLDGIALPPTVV
# Variants of: B1
# Conditions: with zn446_human ZNF446, Q9NWS9
row,Variant,effect of a mutation on the interaction
1,I678V,with no effect
2,G244E,with no effect

# Variants of: B2
# Conditions: with cr3l1_human CREB3L1, Q96BA8
row,Variant,effect of a mutation on the interaction
1,L87P,disrupting interaction strength
2,A213E,disrupting interaction strength
3,P15L,disrupting interaction strength
4,W128L,disrupting interaction strength

# Variants of: B3
# Conditions: with lnx1_human LNX1, Q8TBB1
row,Variant,effect of a mutation on the interaction
1,W94R,disrupting interaction strength

# Variants of: B4
# Conditions: with lhx4_human LHX4, Q969G2
row,Variant,effect of a mutation on the interaction
1,G93D,with no effect
2,P101L,with no effect
3,R32T,with no effect

# Variants of: B5
# Conditions: with PHC2, Q8IXK0-5
row,Variant,effect of a mutation on the interaction
1,C18Y,disrupting interaction strength

# Variants of: B6
# Conditions: with AGTRAP
row,Variant,effect of a mutation on the interaction
1,R93W,with no effect
2,P21S,with no effect
3,D150N,with no effect
4,T154S,with no effect

# Variants of: B7
# Conditions: with stx11_human STX11, O75558
row,Variant,effect of a mutation on the interaction
1,F94S,disrupting interaction strength
2,L69P,disrupting interaction strength
3,V36M,disrupting interaction strength

# Variants of: B8
# Conditions: with BEND7, Q8N7W2-2
row,Variant,effect of a mutation on the interaction
1,S54F,with no effect
2,P183H,with no effect
3,P183T,with no effect
